The text below walks through data of patent publication US5968815.

The target in experiment [1] is mouse CD4 (L3T4) (mouse) (UniProt P06332).
For experiment [2], the target named is mouse CD8 (LYT2) (mouse) (UniProt P01731).
Experiment [3] deals with Nef (SIV) peptide 84-96 (SIV strain Mac251).
Experiment [4] deals with Nef (SIV) peptide 16-30 (SIV strain Mac251).
The target of experiment [5] is Nef (SIV) peptide 221-235 (SIV strain Mac251).
Experiment [6] deals with Nef (SIV) peptide 40-60 (SIV strain Mac251).
Experiment [7] concerns the target Nef (SIV) peptide 1-15 (SIV strain Mac251).

In turn, “anti-CD4 monoclonal antibody, hybridoma GK 1-5 (rat anti-mouse L3T4)” had an inhibition of the proliferative response of LN cells to beta-galactosidase in experiment [1] of 70%.
Substance “anti-CD8 monoclonal antibody, hybridoma H35 17-2 (rat anti-mouse LYT2)” displayed an inhibition of the proliferative response of LN cells to beta-galactosidase in experiment [2] of 30%.
Regarding “lymph node cells of Balb/c mice immunised with non-recombinant BCG strain 1173P2 (cells without a defined receptor)”, the proliferation of lymph node cells (cpm) is 5000 cpm in experiment [3]; below 2500 cpm in experiment [4]; below 2500 cpm in experiment [5]; below 2500 cpm in experiment [6]; below 2500 cpm in experiment [7].
On to “lymph node cells of unimmunized rats (control of FIG. 14) (cells without a defined receptor)”, for which the proliferation of lymph node cells (cpm) in experiment [3], in experiment [4], in experiment [5], in experiment [6] and in experiment [7] was below 250 cpm throughout.
